According to article PMC11848091 (Heliyon, 2025):

Key:
Experiment in all cases: SPR
Mouse TNFR1 = target: T1, Mouse TNFR1 (mouse, UniProt P25118)
T1 sequence: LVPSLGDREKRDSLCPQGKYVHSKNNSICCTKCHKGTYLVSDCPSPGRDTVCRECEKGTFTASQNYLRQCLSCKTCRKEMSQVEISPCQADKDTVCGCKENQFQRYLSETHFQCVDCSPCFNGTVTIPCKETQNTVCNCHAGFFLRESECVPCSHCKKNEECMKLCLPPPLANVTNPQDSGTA

Mouse CD163 = Mouse CD163 (mouse, UniProt Q2VLH6)
Human CD163 = Human CD163 (human, UniProt Q86VB7)
Chain of Human CD163 (Q86VB7 42-1050): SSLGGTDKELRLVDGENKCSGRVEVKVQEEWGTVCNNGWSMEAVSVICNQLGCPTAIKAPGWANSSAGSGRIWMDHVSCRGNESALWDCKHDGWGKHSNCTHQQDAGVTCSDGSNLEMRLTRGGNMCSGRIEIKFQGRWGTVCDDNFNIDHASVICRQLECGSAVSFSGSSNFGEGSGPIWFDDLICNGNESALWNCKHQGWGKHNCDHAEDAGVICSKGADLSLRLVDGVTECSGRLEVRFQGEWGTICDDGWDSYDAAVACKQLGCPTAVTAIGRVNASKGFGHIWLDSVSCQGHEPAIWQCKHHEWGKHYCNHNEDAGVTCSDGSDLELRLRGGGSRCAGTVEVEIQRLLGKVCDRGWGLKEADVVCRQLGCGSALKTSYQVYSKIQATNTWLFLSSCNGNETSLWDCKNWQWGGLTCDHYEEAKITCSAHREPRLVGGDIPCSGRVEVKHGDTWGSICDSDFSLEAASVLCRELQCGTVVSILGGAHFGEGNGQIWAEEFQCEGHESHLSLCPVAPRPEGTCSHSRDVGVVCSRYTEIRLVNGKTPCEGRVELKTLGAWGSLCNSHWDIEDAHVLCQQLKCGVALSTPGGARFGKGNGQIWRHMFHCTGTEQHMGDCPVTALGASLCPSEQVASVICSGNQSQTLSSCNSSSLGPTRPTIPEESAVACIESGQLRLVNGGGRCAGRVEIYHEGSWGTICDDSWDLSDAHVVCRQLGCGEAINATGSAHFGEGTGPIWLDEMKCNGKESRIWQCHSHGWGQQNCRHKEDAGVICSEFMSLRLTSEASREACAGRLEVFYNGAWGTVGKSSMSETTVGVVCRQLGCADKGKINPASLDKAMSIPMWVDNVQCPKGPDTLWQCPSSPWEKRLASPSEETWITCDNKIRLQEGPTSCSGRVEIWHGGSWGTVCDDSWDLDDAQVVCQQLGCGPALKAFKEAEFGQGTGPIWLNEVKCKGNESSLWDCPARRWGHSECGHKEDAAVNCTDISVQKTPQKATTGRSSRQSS

Chain of Mouse CD163 (Q2VLH6 39-1045): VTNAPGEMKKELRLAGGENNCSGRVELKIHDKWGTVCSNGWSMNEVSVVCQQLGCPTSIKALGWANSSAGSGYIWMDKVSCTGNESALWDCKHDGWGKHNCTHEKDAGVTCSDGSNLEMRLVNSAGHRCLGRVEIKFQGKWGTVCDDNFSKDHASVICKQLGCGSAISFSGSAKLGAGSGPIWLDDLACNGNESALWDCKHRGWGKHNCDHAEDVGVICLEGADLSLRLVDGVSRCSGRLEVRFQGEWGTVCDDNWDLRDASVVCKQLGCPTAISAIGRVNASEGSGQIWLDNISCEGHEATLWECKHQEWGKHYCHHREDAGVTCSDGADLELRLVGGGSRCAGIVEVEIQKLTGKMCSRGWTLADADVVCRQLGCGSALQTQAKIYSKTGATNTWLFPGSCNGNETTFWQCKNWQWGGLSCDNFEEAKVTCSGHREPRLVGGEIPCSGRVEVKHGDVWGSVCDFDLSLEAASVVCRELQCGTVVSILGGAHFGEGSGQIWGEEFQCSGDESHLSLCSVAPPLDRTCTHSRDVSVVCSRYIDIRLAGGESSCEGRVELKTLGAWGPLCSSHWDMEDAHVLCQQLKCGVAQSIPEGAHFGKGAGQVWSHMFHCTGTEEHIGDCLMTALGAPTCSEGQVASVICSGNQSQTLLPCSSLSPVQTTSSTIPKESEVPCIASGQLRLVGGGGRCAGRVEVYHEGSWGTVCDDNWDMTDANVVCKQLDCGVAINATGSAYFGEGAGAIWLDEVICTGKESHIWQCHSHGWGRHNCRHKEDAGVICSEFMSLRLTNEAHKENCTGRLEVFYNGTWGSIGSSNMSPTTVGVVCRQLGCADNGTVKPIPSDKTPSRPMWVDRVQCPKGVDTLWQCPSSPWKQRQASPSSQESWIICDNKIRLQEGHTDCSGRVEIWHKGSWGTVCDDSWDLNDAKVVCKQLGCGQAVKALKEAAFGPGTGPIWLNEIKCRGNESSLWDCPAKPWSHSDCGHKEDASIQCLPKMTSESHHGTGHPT

B1: Mouse TNF (ligand)
chain: LRSSSQNSSDKPVAHVVANHQVEEQLEWLSQRANALLANGMDLKDNQLVVPADGLYLVYSQVLFKGQGCPDYVLLTHTVSRFAISYQEKVNLLSAVKSPCPKDTPEGAELKPWYEPIYLGGVFQLEKGDQLSAEVNLPKYLDFAESGQVYFGVIAL
B1 showed a Kd (Mouse TNFR1) of 69.6 nM, a koff (Mouse TNFR1) of 0.000379 s⁻¹ and a kon (Mouse TNFR1) of 5450 M⁻¹ s⁻¹. The Kd (Mouse CD163) was 0.093 nM, the koff (Mouse CD163) was 0.000232 s⁻¹ and the kon (Mouse CD163) was 2.5e+06 M⁻¹ s⁻¹. For the same binder, the Kd (Human CD163) was 1.93 nM, the koff (Human CD163) was 0.000151 s⁻¹ and the kon (Human CD163) was 78500 M⁻¹ s⁻¹.
